Source: patent publication US20160075784A1

How the values were obtained:
[1] = molecular target: CS1-specific CAR (anti-CS1-scFv-CD28-CD3ζ; Pinco-CS1-CAR construct), expressed on transduced primary human T cells; test: flow cytometry, CS1-CAR-transduced healthy donor T cells
[2] = molecular target: CS1-specific CAR (anti-CS1-scFv-CD28-CD3ζ; Pinco-CS1-CAR construct), expressed on transduced primary human T cells; test: flow cytometry, CS1-CAR-transduced T cells of patients with relapsed myeloma, double staining with anti-CD3

Sequence of CS1-specific CAR (anti-CS1-scFv-CD28-CD3ζ; Pinco-CS1-CAR construct), expressed on transduced primary human T cells (chain, as listed by the source): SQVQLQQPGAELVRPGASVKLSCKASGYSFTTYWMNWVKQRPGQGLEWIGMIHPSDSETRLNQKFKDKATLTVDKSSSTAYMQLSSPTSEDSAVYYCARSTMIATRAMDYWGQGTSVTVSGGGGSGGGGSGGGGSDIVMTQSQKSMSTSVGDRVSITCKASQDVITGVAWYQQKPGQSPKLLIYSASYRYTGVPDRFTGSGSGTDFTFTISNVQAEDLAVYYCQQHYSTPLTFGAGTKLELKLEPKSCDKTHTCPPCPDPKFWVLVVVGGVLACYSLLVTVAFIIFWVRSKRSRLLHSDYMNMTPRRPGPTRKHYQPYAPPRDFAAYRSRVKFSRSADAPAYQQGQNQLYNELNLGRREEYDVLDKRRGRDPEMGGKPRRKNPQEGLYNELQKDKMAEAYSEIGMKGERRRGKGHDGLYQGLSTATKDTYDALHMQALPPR

percent of cells stained [1]: 70.3%
percent of cells stained [2]: 60.7%
Substance: biotin-labeled goat anti-mouse (Fab)2 polyclonal antibody (Jackson ImmunoResearch)
